Assay [1] concerns the target human IgG (Chugai Pharmaceutical Co., Ltd.) (human). Put plainly: SPR (BIAcore T200), IgG immobilised; 1:1 binding fit. On the technique in general: SPR reads the build-up and loss of mass on a sensor chip optically.
For assay [2] the target is unchanged. The experiment in a line: SPR (BIAcore T200), IgG immobilised; equilibrium value.
Assay [3] shares this target. Put plainly: SPR (BIAcore T200), IgG immobilised.

*1 amine or outer side, *2 acyl side, *3 side chain or, on linkers, in order; H or OH if unused. Bridges are numbered along the chain shown (N, C = ends). Primed or numbered codes have the meaning given here. The star is where a group is joined. Biotin = O=C1N[C@H]2[C@H](CS[C@H]2CCCCC(=O)*)N1; Glutaryl = O=C(CCCC(=O)[*:2])[*:1]; HOOC(CH2)6CO = O=C(O)CCCCCCC(=O)*; PEG4′ = not defined here

In general, Kd refers to the equilibrium constant for the complex coming apart. Read a high Kd as a looser complex.

B1: Type I(R8K)-DSG-OH, GDDCAYHK(DSG-OH)…-NH2 (peptide)
peptide: {Biotin-PEG4′}-GDDCAYHK(Glutaryl)GELVWCTFH-NH2
modifications: disulfide 4-14 (inferred)
As to B1, the Kd in assay [1] is 315 nM; in assay [2], 330 nM.

B2: Type I(R8K)-DSS-OH, GDDCAYHK(DSS-OH)…-NH2 (peptide)
peptide: {Biotin-PEG4′}-GDDCAYHK(HOOC(CH2)6CO)GELVWCTFH-NH2
modifications: disulfide 4-14 (inferred)
Take B2: the Kd was 365 nM in assay [1] and 389 nM in assay [2].

B3: Type I IgG-binding peptide, …-NH2 (peptide)
peptide: {Biotin-PEG4′}-GPDCAYHRGELVWCTFH-NH2
modifications: disulfide 4-14 (inferred)
In the case of B3, the Kd in assay [1] is 9.1 nM; in assay [2], 10 nM.

B4: Type I(R8K) IgG-binding peptide, …-NH2 (peptide)
peptide: {Biotin-PEG4′}-GDDCAYHKGELVWCTFH-NH2
modifications: disulfide 4-14 (inferred)
On to B4, for which the fold decrease in affinity against Type I in assay [3] stood at 10 times. Also, the dissociation constant Kd is 156 nM in assay [1] and 131 nM in assay [2].
